Test system: MS2 coat protein
Assay: apparent KD of MS2 coat protein; designed switch direction (-1 OFF switch, 1 ON switch): -1; higher = weaker reporter binding
In short: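 Transcription of designed RNA switches on Illumina chips was done by stalled E. coli RNA polymerase. SNAP-549-labelled MS2 coat protein was then titrated in doubling steps from 0.7 or 1.5 nM to 3 µM, with steps of 0.8–1.5 h at the lowest and 10–20 min at the highest concentration. The per-design median over clusters of curve-fitted normalised fluorescence is reported as apparent KD.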

[1] = Eterna round: R95, input ligand: FMN 200 uM
[2] = Eterna round: R95, input ligand: microRNA oligo, concentration not stated
[3] = Eterna round: R95, input ligand: none
[4] = input ligand: microRNA oligo, concentration not stated

Sequence	apparent KD of MS2 coat protein (input ligand: FMN 200 uM) [nM]	apparent KD of MS2 coat protein (input ligand: none) [nM]	apparent KD of MS2 coat protein [1] [nM]	apparent KD of MS2 coat protein [2] [nM]	apparent KD of MS2 coat protein [3] [nM]	apparent KD of MS2 coat protein [4] [nM]
CUCUAGUCAGGAUAUUAGUUGUCGCCCAGCAACGGGCGACAUGAGAAGGGACUUGAGGAUCACCCAAGUAAACG [Leorteti] (Eterna round: R97, puzzle: Exclusion 4)	279	478				
AAGAAACAUGAGGAUCACCCAUGUGAGGAUAUGACCCGCCCGGCGUAAGCAAAAUAAAUCAGAAGGCACAAAGG [salish99_ex1_r4_007] (Eterna round: R97, puzzle: Exclusion 1)	35.5	37.3				
GAUAUGGUGGAGGAUAUCAUUUUGGAACCAAAGUGAGAAGGCUAAACAUGAGGAUCACCCAUGUGAAGCAAGGG [Eternabot (Original) Solution 41] (Eterna round: R97, puzzle: Exclusion 6)	23.3	20.4				
AGAAAUGCCCAUGGCCGCAAGCUUUUUACUUGUCUUACCACAUGAGGAUCACCCAUGUGACAUGGGCUCCUGAUAAU [Mabeonen] (puzzle: Sensor v3, turn-off variant 2)			15	27.5	13.4	
AAAUACAAGUAAAGAUCCUACAUGAGGAUCACCCAUGUGUUCGUCUUAUAAAGUACUAUCACGAAAGUGAUAGUACA [Sensor 3, v1 - 24] (puzzle: Sensor v3, turn-off variant 1)			89	131	131	
AUUAAACAUGUAGGAUAUGCGUGGCGAAGCUAUGCAGAAGGACAUGAGGAUCACCCAUGUUUUAGCGUCUGCGUACAGAUGCAA [JL ENG1 1.38] (Eterna round: R96, puzzle: Exclusion NG 1)	218	30.3				17.8
ACAUGAGGAUCACCCAUGUGCACGUAAUGGCUCAUGUAGAGUGAGGAUAUGUGAGACGAACGAGAACAGAAGGCACAAGACAGG [Deportation 8 - Jieux - Exclusion NG 3] (Eterna round: R96, puzzle: Exclusion NG 3)	106	116				92.8
ACAUGAGGAUCACCCAUGUCCGGCUGGUCUGUUCCGGUUGUCGAGGAUAUAGUUCGGUGUUCGCGCUAGAAGGUGGGAGCUGGG [Aenatbe mod 55] (Eterna round: R96, puzzle: Exclusion NG 3)	308	190				163
GCACUCUGCUGGCAGUCGGCUUGUCUUAGAAGGAUAGAUACAUGAGGAUCACCCAUGUUUCGGGUGUCAAUUCUAGC [JR_Sensorv2_tov2_Sub1308] (Eterna round: R96, puzzle: Sensor v2, turn-off variant 2)	43.9	42.6				34.5
GGUGCGUUUGUGAGGAUAUGCUGGUCCUUGGAUCAGCAGAAGGCACAUGAGGAUCACCCAUGUGGUGUCGUCCC [salish99_Bmod_Ex4_041] (puzzle: Brourd's mod of Exclusion 4)				210		
GCCAGAGCAGGAUAUUCAAUAAUUCACAUGAGGAUCACCCAUGUCCAGCGAAAGCUAGGAGGAGAAGGGCUCUGGC [Fiskers Ex 5 - 4] (puzzle: Exclusion 5)			15.2	17.2	17.8	
GAUCUGACAGGAUAUACAUGAGGAUCACCCAUGUGCGAGCUAGCGAAAGCUAGCUCAGGUAGAAGGGUCAGAUC [Ex3 dot plot directed] (Eterna round: R96, puzzle: Exclusion 3)	15.1	15.7				13.1
AUUGAUAUUGAGGAUAUGCUUUUAUUUGUUCUUGCAGAAGGCGAUACAUGAGGAUCACCCAUGUUUAUGGAAGU [JR_E6_Sub089] (puzzle: Exclusion 6)				38.9		
GUGGUACAUGAGGAUCACCCAUGUCAGGAUAUCGCGUGGUUUUUUGCGGCCGCGCGCGCGAGAAGGGACGUCUU (puzzle: Exclusion 1)				29.1		
GCGAGGUUAGGAUAUGCUGGCGUGGACUUGAGGAUCACCCAAGUGACUGCGGGCUAGGGCGCAGAAGGGACAAAAU [Usti] (Eterna round: R97, puzzle: Exclusion 5)	45.1	45.6				
CUAACAUGCUGGUGAUCAUACAUGAGGAUCACCCAUGUAACAAGCUUUUUGCUCGUCUUAUAAUUUAAGAUCACCAG [Stov1/7-A4] (Eterna round: R97, puzzle: Sensor, turn-off variant 1)	17	14.1				
AUUAUUACAUAGGAUAUAAAAGAGCUCACUCAGUUAGAAGGAUGUACAUGAGGAUCACCCAUGUGAUUCUGGCU [Eternabot (L2) Solution 58] (Eterna round: R97, puzzle: Exclusion 6)	26.3	25.2				

Sequence	apparent KD of MS2 coat protein (input ligand: FMN 200 uM) [nM]	apparent KD of MS2 coat protein (input ligand: none) [nM]	apparent KD of MS2 coat protein [1] [nM]	apparent KD of MS2 coat protein [2] [nM]	apparent KD of MS2 coat protein [3] [nM]	apparent KD of MS2 coat protein [4] [nM]
GUUGUUUAUGUAGGAUAUGCCUGGCGUGCCUUUGCAGAAGGACAUGAGGAUCACCCAUGUAUUGCGGUCUGCGUUCAGAUCGCG [salish99_ExNG1_r4_040] (Eterna round: R96, puzzle: Exclusion NG 1)	58.3	30				27.8
CUUCAGUCAGGAUAUCAUGAGCUCUGCCGACACGGGCUCGCUGAGAAGGGACAUGAGGAUCACCCAUGUAGACC [EX4 C.20] (Eterna round: R97, puzzle: Exclusion 4)	132	34.1				
AUGGGUCCUUUCGGAGCGACAUGAGGAUCACCCAUGUGUGUUGAGGAUAUCCACUGCUAAGGACGGGAGAAGGCAGUGUACUGU [Ex NG3 #84] (Eterna round: R96, puzzle: Exclusion NG 3)	36.2	49.4				26.7
GGGCCCGGUGUGAGGAUAUCGGGCUCGAAAGGGCUCGAGAAGGCACAUGAGGAUCACCCAUGUAAGCCGGGCCC [-42.6, -40.5 kcal, A 23%, 4-0] (Eterna round: R97, puzzle: Brourd's mod of Exclusion 4)	15.2	18.6				
GGUAAGCUAGGAUAUGCUUUGGGAAAGCAUUCCUUCGAUAAACUUGAGGAUCACCCAAGUAGAAGGAGCUUACC [salish99_ex2_r4_016] (Eterna round: R97, puzzle: Exclusion 2)	19.8	11.8				
GCCAGUGCAGGAUAUUCAAUAAUUCACAUGAGGAUCACCCAUGUCCAGCGAAAGCUGGAAGGAGAAGGGCACUGGC [Mat - Exclusion 5 - Eli mod - D85] (puzzle: Exclusion 5)			10.2	12.8	14.6	
GUGUAGUCAGGAUAUACAUAGGAAGAGAAGAGAAGAGAAGUACAUGAGGAUCACCCAUGUAGAAGGGACAGUGU [Excluse me!! 6 - Jieux - Exclusion 2] (puzzle: Exclusion 2)				21.7		
AUAAAUCAUGUAGGAUAUGCGUGGAGAAGCUAUGCAGAAGGACAUGAGGAUCACCCAUGUGCUUCCGUCUGAGUACAGACGGAA [Mat - Exclusion NG 1 - Mod of JL - D37] (Eterna round: R96, puzzle: Exclusion NG 1)	129	86.5				99.4
AGCCACAGAGGAUAUACAUACAUCCAGUAGUUAAGAAAACUACAUGAGGAUCACCCAUGUAGAAGGCUGUGGCA [Omei Ex2 BD B5] (Eterna round: R97, puzzle: Exclusion 2)	507	101				
GGGUUGGUAGGAUAUACAUGAGGAUCACCCAUGUCAUGUCGUCGGGAAAGAUCUUUCCGUAGAAGGGCCACCCG [Eternabot (L2) Solution 52] (Eterna round: R97, puzzle: Exclusion 3)	97	28				
AGUAACCGUCACGAAAGUGAUGGUUACGCAAGCAAUGAAACAUGAGGAUCACCCAUGUCCUCAUUUGCUCGUCUUAU [Sensor 3 - 41] (puzzle: Sensor v3, turn-off variant 2)			24.6	347	25.7	
AUAGGAGGAGGAUAUGAAACCGAUAACAUGAGGAUCACCCAUGUCGAAAGAACUUUCCGGUCAGAAGGCCUGAUGU [Eternabot (L2) Solution 60] (Eterna round: R97, puzzle: Exclusion 5)	16.3	25.1				
AACCUGAGGCAAAGCUUUAGGUGUACAUGAGGAUCACCCAUGUAGGAUAUGGUAGGCUUUGCUUACCAGAAGGACAUUGGCGUA [Mat - Exclusion NG 3 - Mod of JL - D42] (Eterna round: R96, puzzle: Exclusion NG 3)	345	91.7				70.5
AGAUAGUGCAGAGGAUAUCUUAAUAGAAAGAAUAGAGAAGGCUGACAUGAGGAUCACCCAUGUGAUGUCUUGAGACUACAUGGU [Prohibition 33 - Jieux - Exclusion NG 1] (Eterna round: R96, puzzle: Exclusion NG 1)						45.9
UGUUGUCGCGCAGGAUAUUGUCAACAGGCAAUAGGAUAUCCGAAAGGAGAAGGAUCGCCAACAGGCGAGAAGGGCGGGACAACU [pwkr exNG2 2xF7 2xFMN.4] (Eterna round: R96, puzzle: Exclusion NG 2)	35.4	1200				478
GAGAAGGUAGGAUAUACGAAAAAAAAGGGUAGAAAAAAAACACAUGAGGAUCACCCAUGUAGAAGGACCAAAAG [salish99_ex2_r3_035] (puzzle: Exclusion 2)			68.9	24.6	28	
